Results taken from the supplement of paper PMC10567573.

B1: CDC14A (parent)
chain: LNLAMVYRYCCKLNKKLKSYSLSR
B2: TRIM63 (parent)
chain: FRCPTCRHEVIMDRHGVYGLQRNL

Variants of: B1
Test: protein stability index of a GFP-peptide fusion (GPS, HEK-293T) (PSI 1-6); higher = more stable
Conditions: c terminus: a fixed tail appended
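Note: lentivirally expressed fusions sorted by FACS into six bins by GFP to DsRed ratio, PSI derived from sequencing read proportions per bin multiplied by bin number.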

Point of comparison: LNLAMVYRYMCKLNKKLKSYSLSR [C10M], protein stability index 2.89. Against it:
- LNPAMVYRYCCKLNKKLKSYSLSR [L3P] — higher, 3.05
- SNLAMVYRYCCKLNKKLKSYSLSR [L1S] — higher, 3.71
- LNLAMVYRYCCKLNNKLKSYSLSR [K15N] — lower, 2.31
- LNLAMVYRYCCKLNKKLKSYYLSR [S21Y] — lower, 2.62
- LNLFMVYRYCCKLNKKLKSYSLSR [A4F] — higher, 3.74
- LNLAMVYRYCCKLNKKLKSYSLSD [R24D] — higher, 3.64
- LNLAMVYRYCCKLNKKLKSYFLSR [S21F] — lower, 2.38
- LNLAMVYRYDCKLNKKLKSYSLSR [C10D] — lower, 2.31
- LNLAMVYRYCCKYNKKLKSYSLSR [L13Y] — lower, 2.32
- LNLAMVYRYCCKLCKKLKSYSLSR [N14C] — higher, 3.38
- LNLAMVYRYCCKLNKKLKSYSLSC [R24C] — higher, 3.05
- LNLDMVYRYCCKLNKKLKSYSLSR [A4D] — higher, 4.12
- LNLAMVYRYCCKLNKKLKSYSLFR [S23F] — lower, 2.69
- LNLAMVYRYCCKLNKKLKSYSPSR [L22P] — lower, 2.24
- LNLEMVYRYCCKLNKKLKSYSLSR [A4E] — lower, 2.43
- ANLAMVYRYCCKLNKKLKSYSLSR [L1A] — lower, 2.44
- LNLAMVYRRCCKLNKKLKSYSLSR [Y9R] — lower, 2.03
- LNLAMVTRYCCKLNKKLKSYSLSR [Y7T] — higher, 3.96
- LNLAMVYRYCCFLNKKLKSYSLSR [K12F] — lower, 2.18
- LNLAMVARYCCKLNKKLKSYSLSR [Y7A] — lower, 1.85
- LNLMMVYRYCCKLNKKLKSYSLSR [A4M] — higher, 3.12
- LNLAMVYRICCKLNKKLKSYSLSR [Y9I] — lower, 2.02
- LNLAMVYRYYCKLNKKLKSYSLSR [C10Y] — higher, 4.25
- LNLAMVYRYCCILNKKLKSYSLSR [K12I] — higher, 3.53
- LNDAMVYRYCCKLNKKLKSYSLSR [L3D] — lower, 2.29
- LNLAMVYRYCCKLNKKLKSYSTSR [L22T] — lower, 2.8
- LNLAMVYRYCCKLNKKEKSYSLSR [L17E] — lower, 1.69
- LNLAMVYRYCCTLNKKLKSYSLSR [K12T] — lower, 2.55
- LNLAMVYRYSCKLNKKLKSYSLSR [C10S] — lower, 2.28
- LNLAMVYRYCCHLNKKLKSYSLSR [K12H] — lower, 1.73
- LNLAMVYRYCCKLNKKLKGYSLSR [S19G] — lower, 2.5
- LNLAMVYRYCCKENKKLKSYSLSR [L13E] — lower, 2.48
- LNLYMVYRYCCKLNKKLKSYSLSR [A4Y] — higher, 2.91
- LNLAMVYRYCCKLNKKLKSHSLSR [Y20H] — higher, 3.02
- LNLAMFYRYCCKLNKKLKSYSLSR [V6F] — higher, 5.59
- LNLLMVYRYCCKLNKKLKSYSLSR [A4L] — lower, 2.68
- LNLAMVYRYCCKLNKKLKSYSDSR [L22D] — lower, 2.2
- LNLAMVYRYCCKLNKKLKSYSRSR [L22R] — lower, 2.31
- LNLAMVYRYCCKLNKKLKSYCLSR [S21C] — higher, 3.76
- KNLAMVYRYCCKLNKKLKSYSLSR [L1K] — lower, 2.73
- LNLAMVYRYCCKLNKKLKSYSLSQ [R24Q] — higher, 4.16
- LNLAMVYRYCCKLNKKLKSYMLSR [S21M] — higher, 3.42
- LNLANVYRYCCKLNKKLKSYSLSR [M5N] — higher, 3.77
- LNLAMVYRYCCKLNKNLKSYSLSR [K16N] — lower, 2.32
- LNLAMVYRYCCKLNKKLNSYSLSR [K18N] — lower, 2.77
- LNLAMVYRYCCKLNKKMKSYSLSR [L17M] — higher, 3.07
- LNLAMVERYCCKLNKKLKSYSLSR [Y7E] — lower, 2.16
- LNLAMVYRYCCKLNKKLKSWSLSR [Y20W] — higher, 3.32
- LNLAMVPRYCCKLNKKLKSYSLSR [Y7P] — lower, 2.23
- LNLAMVYRYCCKLTKKLKSYSLSR [N14T] — higher, 3.41
- LNLAMVYRYCCKLNKKLKSYSLSP [R24P] — lower, 2.59
- LNLAMVYRYCCKLNKKLKHYSLSR [S19H] — lower, 2.3
- LNLKMVYRYCCKLNKKLKSYSLSR [A4K] — lower, 1.59
- LNLAMVYRYCCKLNKKSKSYSLSR [L17S] — lower, 2.17
- LNLAMVYRYCCKLNKPLKSYSLSR [K16P] — lower, 2.42
- LNLAMVYRYCCQLNKKLKSYSLSR [K12Q] — higher, 3.04
- LNLAMVYRYCCSLNKKLKSYSLSR [K12S] — lower, 2.58
- LNLAMVYRCCCKLNKKLKSYSLSR [Y9C] — lower, 2.59
- LNLAMVYRYCCNLNKKLKSYSLSR [K12N] — lower, 2.15
- LNLAMVYRYCCKLNAKLKSYSLSR [K15A] — lower, 2.87
- LNLAMVYSYCCKLNKKLKSYSLSR [R8S] — higher, 2.98
- LNLAMVYRYCCKLNKKLKSYSLSY [R24Y] — higher, 3.41
- LNLAMVYRWCCKLNKKLKSYSLSR [Y9W] — higher, 2.91
- LRLAMVYRYCCKLNKKLKSYSLSR [N2R] — lower, 2.39
- LNLAMVVRYCCKLNKKLKSYSLSR [Y7V] — higher, 3.72
- LNLAMVYRYCCYLNKKLKSYSLSR [K12Y] — lower, 2.51
- LNLAMVYRKCCKLNKKLKSYSLSR [Y9K] — higher, 3.54
- LNLAMVYRYCCKLNKKLKSRSLSR [Y20R] — lower, 2.17
- LNLAMVYRYCCKLNKKLKSYSLSW [R24W] — higher, 3.11
- LNLAMVYRYCGKLNKKLKSYSLSR [C11G] — higher, 4.89
- LNLAMDYRYCCKLNKKLKSYSLSR [V6D] — lower, 2.05
- LNLAMVYRYCCELNKKLKSYSLSR [K12E] — lower, 1.5
- LNLAMVYRYCCKLNKKLKSYSLWR [S23W] — higher, 3.77
- LNLAMVYRYCCKLVKKLKSYSLSR [N14V] — lower, 1.78
- LNLAMVYRYCCKLNKKLKAYSLSR [S19A] — higher, 3.52

Variants of: B2
Test: as above
Conditions: c terminus: a fixed tail appended

Point of comparison: NRCPTCRHEVIMDRHGVYGLQRNL [F1N], protein stability index 3.53. Against it:
- ARCPTCRHEVIMDRHGVYGLQRNL [F1A] — lower, 1.16
- CRCPTCRHEVIMDRHGVYGLQRNL [F1C] — lower, 2.44
- DRCPTCRHEVIMDRHGVYGLQRNL [F1D] — lower, 2.76
- ERCPTCRHEVIMDRHGVYGLQRNL [F1E] — lower, 2.69
- GRCPTCRHEVIMDRHGVYGLQRNL [F1G] — lower, 1.38
- HRCPTCRHEVIMDRHGVYGLQRNL [F1H] — lower, 2.39
- IRCPTCRHEVIMDRHGVYGLQRNL [F1I] — lower, 1.47
- KRCPTCRHEVIMDRHGVYGLQRNL [F1K] — lower, 2.91
- LRCPTCRHEVIMDRHGVYGLQRNL [F1L] — lower, 3.27
- MRCPTCRHEVIMDRHGVYGLQRNL [F1M] — lower, 2.72
- PRCPTCRHEVIMDRHGVYGLQRNL [F1P] — lower, 3.34
- SRCPTCRHEVIMDRHGVYGLQRNL [F1S] — lower, 2.62
- TRCPTCRHEVIMDRHGVYGLQRNL [F1T] — higher, 3.56
- VRCPTCRHEVIMDRHGVYGLQRNL [F1V] — lower, 2.15
- WRCPTCRHEVIMDRHGVYGLQRNL [F1W] — lower, 2.14
- YRCPTCRHEVIMDRHGVYGLQRNL [F1Y] — lower, 1.96
- FACPTCRHEVIMDRHGVYGLQRNL [R2A] — lower, 2.96
